Patent US20060105444A1, “O-fucosyltransferase” (Genentech, Inc., priority 1997, published 2006)

Molecular target: T1, purified O-fucosyltransferase (Cricetulus griseus, UniProt P83337)
T1 construct: endogenous in cells; host or cells: CHO cell paste (enzyme); E. coli periplasm (EGF substrates)
Assay: Acceptor substrate specificity: fucosyltransferase assay with Factor IX EGF domain mutants
Type: biochemical, CHO cells (Chinese hamster ovary)
Conditions: for Fucose (cpm): human Factor IX EGF domain or mutant as acceptor substrate, 14C-fucose incorporated; for acceptor substrate for the O-fucosyltransferase (in words): recombinant Factor IX EGF domains, assay counts and LC/MS of fucosylation product
Method: A reaction volume of 50 μl contained the following ingredient: 0.1 M imidazole-HCl, pH 7.0; 50 mM MnCl2; 0.1 mM GDP-^14C-Fucose (4000-8000 cpm/nmol), 20 μM recombinant human Factor VII EGF-1 domain and about 0.01-0.1 milliunit of enzyme activity. The mixture was incubated at 37° C. for 10-20 minutes. The reaction was stopped by placing the mixture on ice, then diluting with 950 μl of 0.25 M EDTA, pH 8.0. Separation of incorporated fucose from GDP-fucose, fucose-phosphate and free fucose was carried out by passing the solution through a C18 cartridge (Alltech, Extract Clean, C18, 200 mg). The cartridge was washed with 5 ml of H2O, and the product was then eluted with 3 ml of 80% acetonitrile containing 0.052% TFA. The eluant was mixed with 10 ml Aquasol II (NEN/Du Pont) and counted using a liquid scintillation counter.
As described previously, all the O-fucosylation on EGF domains occur within the putative consensus sequence CXXGGSC (SEQ ID NO: 1) or alternatively CXXGGTC (SEQ ID NO: 21). […] Three mutants were constructed using alanine to replace either of the two or both glycine residues and tested as acceptor substrate for the purified O-fucosyltransferase. Assays using the four recombinant EGF domains all gave positive counts. It appeared that the two glycine residues were not absolutely required for activity.
In order to determine if all the different forms of the mutants served as substrate for the O-fucosyltransferase, reverse-phase HPLC online with electrospray mass spectrometry was used to analyze the product of the fucosylation reaction. Shown in FIG. 8 is the experiment using the mutant ala-ala. Analysis of the other tested mutants gave similar results. […] The enzyme O-fucosyltransferase required its substrate in order to have the proper three dimensional structure in order to function properly.

Fucose (cpm)	Substance	acceptor substrate for the O-fucosyltransferase (in words)
12062 cpm	EGF (wild type): Recombinant human Factor IX EGF domain, wild type, sequence -CLNGGSC- (SEQ ID NO: 20) (KRYNSGKLEEFVQGNLERECMEEKCSFEEAREVFENTERTTEFHHHHHHGSA)	better substrate than the mutants
1818 cpm	EGF.AA: Recombinant human Factor IX EGF domain mutant, sequence -CLNAASC- (SEQ ID NO: 17), both glycines replaced by alanine	only one of the four differently folded species served as an acceptor substrate
4585 cpm	EGF.AG: Recombinant human Factor IX EGF domain mutant, sequence -CLNAGSC- (SEQ ID NO: 18) (KRYNSGKLEEFVQGNLERECMEEKCSFEEAREVFENTERTTEFHHHHHHGSA)	–
